Results from IntAct's records for PubMed 19141287.

B1: Mitotic checkpoint serine/threonine-protein kinase BUB1 (Homo sapiens), O43683 (parent)
chain: MDTPENVLQMLEAHMQSYKGNDPLGEWERYIQWVEENFPENKEYLITLLEHLMKEFLDKKKYHNDPRFISYCLKFAEYNSDLHQFFEFLYNHGIGTLSSPLYIAWAGHLEAQGELQHASAVLQRGIQNQAEPREFLQQQYRLFQTRLTETHLPAQARTSEPLHNVQVLNQMITSKSNPGNNMACISKNQGSELSGVISSACDKESNMERRVITISKSEYSVHSSLASKVDVEQVVMYCKEKLIRGESEFSFEELRAQKYNQRRKHEQWVNEDRHYMKRKEANAFEEQLLKQKMDELHKKLHQVVETSHEDLPASQERSEVNPARMGPSVGSQQELRAPCLPVTYQQTPVNMEKNPREAPPVVPPLANAISAALVSPATSQSIAPPVPLKAQTVTDSMFAVASKDAGCVNKSTHEFKPQSGAEIKEGCETHKVANTSSFHTTPNTSLGMVQATPSKVQPSPTVHTKEALGFIMNMFQAPTLPDISDDKDEWQSLDQNEDAFEAQFQKNVRSSGAWGVNKIISSLSSAFHVFEDGNKENYGLPQPKNKPTGARTFGERSVSRLPSKPKEEVPHAEEFLDDSTVWGIRCNKTLAPSPKSPGDFTSAAQLASTPFHKLPVESVHILEDKENVVAKQCTQATLDSCEENMVVPSRDGKFSPIQEKSPKQALSSHMYSASLLRLSQPAAGGVLTCEAELGVEACRLTDTDAAIAEDPPDAIAGLQAEWMQMSSLGTVDAPNFIVGNPWDDKLIFKLLSGLSKPVSSYPNTFEWQCKLPAIKPKTEFQLGSKLVYVHHLLGEGAFAQVYEATQGDLNDAKNKQKFVLKVQKPANPWEFYIGTQLMERLKPSMQHMFMKFYSAHLFQNGSVLVGELYSYGTLLNAINLYKNTPEKVMPQGLVISFAMRMLYMIEQVHDCEIIHGDIKPDNFILGNGFLEQDDEDDLSAGLALIDLGQSIDMKLFPKGTIFTAKCETSGFQCVEMLSNKPWNYQIDYFGVAATVYCMLFGTYMKVKNEGGECKPEGLFRRLPHLDMWNEFFHVMLNIPDCHHLPSLDLLRQKLKKVFQQHYTNKIRALRNRLIVLLLECKRSRK

Variants of: B1
Details: with KNL1, Q8NG31-2
Sequence of KNL1, Q8NG31-2 (Q8NG31 other isoform, or with tags, fused parts or gaps): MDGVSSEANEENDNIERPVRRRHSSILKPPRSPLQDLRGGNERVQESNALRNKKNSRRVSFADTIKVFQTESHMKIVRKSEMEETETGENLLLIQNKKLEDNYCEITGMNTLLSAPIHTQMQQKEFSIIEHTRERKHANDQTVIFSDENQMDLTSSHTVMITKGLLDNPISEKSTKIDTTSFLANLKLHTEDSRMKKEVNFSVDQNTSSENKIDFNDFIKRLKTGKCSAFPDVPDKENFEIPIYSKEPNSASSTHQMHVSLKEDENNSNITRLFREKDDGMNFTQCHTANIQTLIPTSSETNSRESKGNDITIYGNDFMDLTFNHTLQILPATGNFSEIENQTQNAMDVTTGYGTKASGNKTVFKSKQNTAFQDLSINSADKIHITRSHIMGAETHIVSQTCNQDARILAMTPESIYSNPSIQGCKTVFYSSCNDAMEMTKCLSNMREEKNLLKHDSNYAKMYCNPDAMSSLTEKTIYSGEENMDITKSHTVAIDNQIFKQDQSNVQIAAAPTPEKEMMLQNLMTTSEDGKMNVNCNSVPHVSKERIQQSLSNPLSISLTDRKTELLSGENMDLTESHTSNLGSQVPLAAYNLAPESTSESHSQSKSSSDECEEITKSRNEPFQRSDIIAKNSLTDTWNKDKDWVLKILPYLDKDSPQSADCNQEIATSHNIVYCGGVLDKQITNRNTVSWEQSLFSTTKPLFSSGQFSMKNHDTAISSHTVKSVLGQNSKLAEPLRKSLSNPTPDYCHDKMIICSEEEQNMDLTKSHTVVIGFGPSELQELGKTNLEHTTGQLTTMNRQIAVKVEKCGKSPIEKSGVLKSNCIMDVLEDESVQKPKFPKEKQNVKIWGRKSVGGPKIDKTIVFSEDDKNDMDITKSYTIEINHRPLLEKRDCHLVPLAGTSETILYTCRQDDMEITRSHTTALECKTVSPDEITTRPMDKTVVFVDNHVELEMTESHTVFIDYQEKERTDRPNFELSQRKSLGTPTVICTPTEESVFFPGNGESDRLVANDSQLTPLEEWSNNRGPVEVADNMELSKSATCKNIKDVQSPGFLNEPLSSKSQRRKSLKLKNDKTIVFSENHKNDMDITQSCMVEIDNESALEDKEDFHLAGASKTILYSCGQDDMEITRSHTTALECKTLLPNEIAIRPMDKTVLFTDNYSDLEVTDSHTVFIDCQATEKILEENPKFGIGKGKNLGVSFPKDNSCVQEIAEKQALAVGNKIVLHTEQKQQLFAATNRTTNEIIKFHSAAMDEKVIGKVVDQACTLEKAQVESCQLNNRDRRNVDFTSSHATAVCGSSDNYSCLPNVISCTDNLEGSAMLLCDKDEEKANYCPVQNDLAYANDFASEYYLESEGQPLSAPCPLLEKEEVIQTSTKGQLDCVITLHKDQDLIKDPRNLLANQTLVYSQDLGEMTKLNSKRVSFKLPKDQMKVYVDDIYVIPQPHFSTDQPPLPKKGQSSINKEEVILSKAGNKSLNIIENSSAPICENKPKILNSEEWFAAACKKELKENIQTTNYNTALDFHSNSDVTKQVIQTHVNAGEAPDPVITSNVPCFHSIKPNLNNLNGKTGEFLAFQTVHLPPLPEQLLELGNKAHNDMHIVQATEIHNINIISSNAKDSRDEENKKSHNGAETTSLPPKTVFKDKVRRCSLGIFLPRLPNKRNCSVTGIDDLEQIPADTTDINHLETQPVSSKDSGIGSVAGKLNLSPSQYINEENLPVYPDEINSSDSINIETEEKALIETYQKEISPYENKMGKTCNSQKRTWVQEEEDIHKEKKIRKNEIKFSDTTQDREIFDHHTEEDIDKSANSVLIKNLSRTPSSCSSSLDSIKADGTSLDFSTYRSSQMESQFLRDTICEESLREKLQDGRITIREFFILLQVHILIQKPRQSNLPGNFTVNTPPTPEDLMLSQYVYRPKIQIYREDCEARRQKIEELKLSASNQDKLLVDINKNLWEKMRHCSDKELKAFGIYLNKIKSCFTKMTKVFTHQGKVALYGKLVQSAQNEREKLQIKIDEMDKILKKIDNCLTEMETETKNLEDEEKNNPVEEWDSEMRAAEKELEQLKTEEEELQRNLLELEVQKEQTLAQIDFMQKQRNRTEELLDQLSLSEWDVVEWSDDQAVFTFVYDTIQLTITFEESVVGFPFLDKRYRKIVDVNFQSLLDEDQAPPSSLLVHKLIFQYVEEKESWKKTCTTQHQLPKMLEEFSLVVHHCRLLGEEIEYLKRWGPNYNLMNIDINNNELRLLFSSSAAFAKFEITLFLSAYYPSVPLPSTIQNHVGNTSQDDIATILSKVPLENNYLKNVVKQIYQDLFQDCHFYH

effect of a mutation on the interaction	Variant
disrupting interaction	G93A;G95A
disrupting interaction	G20S;N21Q;D22A
disrupting interaction	L45G;L49G
disrupting interaction	G93A;I94G;G95L
disrupting interaction	D65G
